Reference: patent publication US20140295512A1, “Ketol-Acid Reductoisomerases With Improved Performance Properties” (CALIFORNIA INSTITUTE OF TECHNOLOGY, priority 2011, published 2014)

B1: Se1_KARI: Slackia exigua (ATCC 700122) ketol-acid reductoisomerase, wild type, SEQ ID NO: 2 (protein, listed as Slackia exigua)
chain: MSVKTKEKEMAVTILYEQDVDPKVIQGLKVGIIGYGSQGHAHALNLMDSGVDVRVGLREGSSSWKTAEEAGLKVTDMDTAAEEADVIMVLVPDEIQPKVYQEHIAAHLKAGNTLAFAHGFNIHYGYIVPPEDVNVIMCAPKGPGHIVRRQFTEGSGVPDLACVQQDATGNAWDIVLSYCWGVGGARSGIIKATFAEETEEDLFGEQAVLCGGLVELVKAGFETLTEAGYPPELAYFECYHEMKMIVDLMYESGIHFMNYSISNTAEYGEYYAGPKVINEQSREAMKEILKRIQDGSFAQEFVDDCNNGHKRLLEQREAINTHPIETTGAQIRSMFSWIKKED
B2: E. coli IlvC: Escherichia coli ketol-acid reductoisomerase (ilvC), wild type (protein, UniProt P05793 2-491, looked up)
Ketol-acid reductoisomerase …: ANYFNTLNLRQQLAQLGKCRFMGRDEFADGASYLQGKKVVIVGCGAQGLNQGLNMRDSGLDISYALRKEAIAEKRASWRKATENGFKVGTYEELIPQADLVINLTPDKQHSDVVRTVQPLMKDGAALGYSHGFNIVEVGEQIRKDITVVMVAPKCPGTEVREEYKRGFGVPTLIAVHPENDPKGEGMAIAKAWAAATGGHRAGVLESSFVAEVKSDLMGEQTILCGMLQAGSLLCFDKLVEEGTDPAYAEKLIQFGWETITEALKQGGITLMMDRLSNPAKLRAYALSEQLKEIMAPLFQKHMDDIISGEFSSGMMADWANDDKKLLTWREETGKTAFETAPQYEGKIGEQEYFDKGVLMIAMVKAGVELAFETMVDSGIIEESAYYESLHELPLIANTIARKRLYEMNVVISDTAEYGNYLFSYACVPLLKPFMAELQPGDLGKAIPEGAVDNGQLRDVNEAIRSHAIEQVGKKLRGYMTDMKRIAVAG

Key:
Assay type in all cases: biochemical
[1] = KARI assay in 100-μL scale to measure pH optimum; conditions: pH 6.0-8.5, NADPH
Procedure: Assay buffers were prepared containing 100 mM potassium phosphate with pH values ranging from 6.0-8.5 in 0.5-steps, 1 mM DTT, 10 mM MgCl2, 2.5 mM acetolactate, and 200 μM NADPH (final concentrations). Ten μL purified enzyme were placed into a flat-bottom assay plate (Evergreen Scientific). The reactions were initiated by addition of 90 μL assay buffer. The change in absorbance at 340 nm was monitored over 1 min in a plate reader (TECAN).

[2] = KARI assay in 1-mL scale to measure NADPH KM value (Example 5); conditions: for Km: Example 5, pH 7.0
Procedure: (§1) KARI activity was assayed kinetically by monitoring the decrease in NADPH or NADH concentration by measuring the change in absorbance at 340 nm. An assay buffer was prepared containing 100 mM potassium phosphate pH 7.0, 1 mM DTT, 2.5 mM (S)-2-acetolactate, and 10 mM MgCl2 (final concentrations in the 1-mL assay). Twenty μL purified enzyme and 960 μL of the assay buffer were placed into a 1-mL cuvette. The reaction was initiated by addition of 20 μL NADPH or NADH (200 μM final concentration) for a general activity assay. Michaelis-Menten constants for the cofactors were determined with varying concentrations of NADPH or NADH (200-12 μM final).

[3] = KARI assay in 1-mL scale to measure NADH KM value (Example 5); conditions: for Km: Example 5, pH 7.0
Procedure: as §1

[4] = KARI assay in 100-μL scale to measure acetolactate KM value; conditions: for Km: NADPH, pH 7.0, read-out: KM (S)-2-acetolactate
Procedure: (§2) An assay buffer was prepared containing 100 mM potassium phosphate pH 7.0, 1 mM DTT, 10 mM MgCl2, and 200 μM NADPH (final concentrations). Five μL purified enzyme and 5 μL of varying concentrations of acetolactate (8-0.125 mM final) were placed into a flat-bottom assay plate (Evergreen Scientific). The reactions were initiated by addition of 90 μL assay buffer. The change in absorbance at 340 nm was monitored over 1 min in a plate reader (TECAN).

[5] = KARI enzyme assay on cell lysates with NADH and NADPH as cofactors; conditions: for NADH-Dependent Specific Activity: empty vector control subtracted
Procedure: In this example, different KARI enzymes (Table 7) were screened for their activity with NADH and NADPH as cofactor. The enzymes were expressed in an S. cerevisiae strain by means of 2 micron plasmids carrying the KARI genes under the control of the S. cerevisiae TDH3 promoter. The transformants were cultivated in shake flask fermentations as described below and samples were taken after 44 h, centrifuged at 4000×g for 10 mins at 4° C. and the cell pellets were stored at −80° C. until analysis. The pellets were lysed by bead beating and the lysates were analyzed by KARI activity assay as described below using NADH and NADPH as cofactors.
Patched cells (or single colonies) grown on YPD+G418 plates at 30° C. were mixed into 3 mL YP+12% dextrose+200 mM MES, pH 6.5+G418, in 14 mL culture tubes and incubated at 250 RPM, 30° C. for ˜24 hours. The cells from the cultures were used to inoculate YP+12% dextrose+200 mM MES, pH 6.5+G418, in non-baffled flasks with a vented grey screw-caps at OD600 0.01. The cultures were incubated at 250 RPM, 30° C. for 24 hours, diluted 1:3 and incubated for another 20 h at 250 RPM, 30° C. Samples for enzyme assay pellets and protein quantification pellets were taken from each shake flask, and cell-free supernatant was used to measure glucose levels in shake flasks.
The assay and no substrate control reactions were performed in triplicate for each sample. The following stock solutions were prepared: 1 M potassium phosphate, pH 7, 0.1 M MgCl2, 100 mM DTT, 25 mM NADH or NADPH, 200 mM 2-acetolactate. The 2-acetolactate was made fresh each time by mixing 50 μL Ethyl-2-acetoxy-2-methylacetoacetate (EAMAA) with 990 μL water. Gradually 260 μL of 2 N NaOH was added in 10 μL increments to the EAMAA water mixture. After each addition the sample was vortexed for 15 seconds, and the procedure repeated until the entire 260 μL of 2 N NaOH was added. Afterwards the solution was mixed on an orbital shaker for 20 min (Krampitz, 1957). KARI reaction buffer (100 μL per reaction) was prepared to the following concentrations: 250 mM potassium phosphate, pH 7, 10 mM MgCl2, 1 mM DTT, 0.2 mM NADH or NADPH, 10 mM 2-acetolactate. For the no substrate controls, the 2-acetolactate was substituted with water. 10 μL of each lysate were transferred into a 96 well half area assay plate. The reaction was started with 90 μL of reaction buffer to each well using a multichannel pipette. The samples were mixed immediately. The samples were read at 340 nm every 10 s for 5 min.

[6] = KARI assay in 100-μL scale to measure MgCl2 KM value; conditions: for Km: NADPH, pH 7.0, read-out: KM Mg^2+
Procedure: as §2, with “DTT, 2.5” for “DTT, 10”, “mM (S)-2-acetolactate,” for “mM MgCl2,”, “of MgCl2” for “of acetolactate (8-0.125 mM final)”

Molecule | optimum pH [1] | optimum pH ([1]; listed as S. exigua KARI) | Km [2] [µM] | kcat with NADH ([3]; Example 5) [s⁻¹] | Km [3] [µM] | KM, fold lower than the Ki for R-DHIV [4] [fold] | Km [4] [µM] | Specific Activity with NADH/Specific Activity with NADPH [5] | NADH-Dependent Specific Activity [5] [U/mg lysate] | Km [6] [µM] | NADPH KM, times higher than NADPH KM for S. exigua KARI [2] [fold] | NADH KM, times higher than NADH KM for S. exigua KARI [3] [fold] | Km ([3]; listed as E. coli KARI) [µM] | KM for acetolactate, times higher than KM of S. exigua KARI [4] [fold] | KM, fold higher than the Ki for R-DHIV [4] [fold] | KM for Mg^2+, times higher than KM of S. exigua KARI [6] [fold]
B1 | 7 | approximately 7.0 | < 1 | 0.4 | 45 ± 10 | 10 | 170 | 0.96 | 0.059 | 700 | – | – | – | – | – | –
B2 | 7.5 | – | 20 ± 3 | – | 1000 | – | 300 ± 100 | 0.175 | 0.04 | 2000 ± 500 | ~20 | 22 | ~1000 | 32 | 3 | 2.9
